The record followed here is patent publication US9994881B2, “Functionalized carboxylic acids and alcohols by reverse fatty acid oxidation in engineered microbes” (William Marsh Rice University, priority 2011, dated 2018).

Substrate in data set [1]: CC(=O)CC(=O)SCCNC(=O)CCNC(=O)[C@H](O)C(C)(C)COP(=O)(O)OP(=O)(O)OC[C@H]1O[C@@H](n2cnc3c(N)ncnc32)[C@H](O)[C@@H]1OP(=O)(O)O
The data set can be described thus: purified protein, by the assay type. To be noted: other: reverse direction, pH 7.5, 2 mM CoA, 25° C.

Substrate in data set [2]: CC(=O)SCCNC(=O)CCNC(=O)[C@H](O)C(C)(C)COP(=O)(O)OP(=O)(O)OC[C@H]1O[C@@H](n2cnc3c(N)ncnc32)[C@H](O)[C@@H]1OP(=O)(O)O
The data set can be described thus: purified protein, by the assay type. The note with it: other: acetyl-CoA condensation, pH 7.5, 0.2 mM NADH, 25° C.

Substrate in data set [3]: CC(=O)CC(=O)SCCNC(=O)CCNC(=O)[C@H](O)C(C)(C)COP(=O)(O)OP(=O)(O)OC[C@H]1O[C@@H](n2cnc3c(N)ncnc32)[C@H](O)[C@@H]1OP(=O)(O)O
The data set can be described thus: 3-Hydroxyacyl-CoA (β-hydroxybutyryl-CoA) dehydrogenase kinetics (oxidation of NADH at 340 nm). The format is biochemical, Escherichia coli. The note with it: other: NADH dependent reduction, pH 7.5, 0.2 mM NADH, 25° C. The text has this:
(§1) For enzyme characterization, E. coli fadA and fadB genes were cloned from MG1655 genomic DNA into the pUCBB-ntH6 vector^43 to yield a constitutively expressed gene with a n-terminal 6 His-tag that can be cleaved by Thrombin. fadA was amplified as two halves with the primers fadANdeI5p:fadAmidrev (1st half) and fadAmidfor:fadANotI3p (2nd half) (Supplementary Table S3).
(§2) fadB was amplified in three parts with fadBNdeI5p:fadBmid1rev (1st part), fadBmid1for:fadBmid2rev (2nd part), and fadBmid2for:fadBNotI3p (3rd part) (Supplementary Table S3). fadA and fadB PCR products sections were combined by overlap extension PCR to yield the whole genes, which were subsequently digested with NdeI and NotI restriction enzymes and ligated into pUCBB-ntH6 that was previously digested with NdeI and NotI to yield pUCBB-ntH6-FadA and pUCBB-ntH6-FadB.
(§3) Cultures for enzymatic assays were grown overnight in 100 mL of LB media at 37° C. in 250 mL baffled flasks (Wheaton Industries, Inc., Millville, N.J.) in E. coli BL21 (DE3) cells induced with either 1 mM IPTG (pCA24N, pTrcHis2A) or 1 mM Arabinose (pUCBB-pBAD) at an OD600˜0.6, or expressed constitutively (pUCBB-ntH6). Reactions were monitored on either a Synergy HT plate reader (BioTek Instruments, Inc., Winooski, Vt.) at 25° C. (for reactions monitored at 300 nm or higher) or in a Biomate 5 Spectrophotometer (Thermo Scientific, Waltham, Mass.) for reactions at 263 nm. […]
(§4) For kinetic characterization, his-tagged proteins of AtoB, FadA, FadB, caHBD, egTER were purified from the B-PER supernatant fractions using Talon Metal Affinity Resin (Clontech Laboratories, Inc., Mountain View, Calif.) using gravity purification. […] Enzyme concentration was established by measuring the absorbance at […] and extinction coefficients predicted for each enzyme by the ProtParam program (web.expasy.org/protparam/).
(§5) For kinetic characterization, an appropriate amount of enzyme was established by checking linear range near predicted KM values. Then, the rates were measured for a range of substrates in order to establish kcat and KM. […]

Substrate in data set [4]: C/C=C/C(=O)SCCNC(=O)CCNC(=O)[C@H](O)C(C)(C)COP(=O)(O)OP(=O)(O)OC[C@H]1O[C@@H](n2cnc3c(N)ncnc32)[C@H](O)[C@@H]1OP(=O)(O)O
The data set can be described thus: Crotonyl-CoA reductase kinetics (loss of NADH absorbance). The format is biochemical, Euglena gracilis. To be noted: other: NADH as co-factor, 0.2 mM NADH, pH 7.5, 25° C.
Excerpt: For AtoB and thioesterase characterization assays, the pCA24N-gene (-gfp) plasmids from the ASKA collection^44 were used. For expression of E. gracilis TER for kinetic characterization, the egTER gene was cloned into pTrcHis2A using the In-Fusion protocol (Clontech Laboratories, Inc., Mountain View, Calif.) following PCR amplification from the aforementioned codon-optimized egTER containing plasmid with the primer pair of F1pTH6hisEgter and R1pTH6hisEgter (Supplementary Table S3).
as §3, §4
For kinetic characterization, an appropriate amount of enzyme was established by checking linear range near predicted KM values. Then, the rates were measured for a range of substrates in order to establish kcat and KM. In the cases of FadB for the crotonase reaction and FadA in the “forward” thiolase reaction coupled with HBD, substrate saturation could not be established, as such, the kcat/KM for the reaction was determined by dividing the linear slope of Velocity vs. [Substrate] by the amount of enzyme used in the assays. […]

Substrate in data set [5]: CC(=O)CC(=O)SCCNC(=O)CCNC(=O)[C@H](O)C(C)(C)COP(=O)(O)OP(=O)(O)OC[C@H]1O[C@@H](n2cnc3c(N)ncnc32)[C@H](O)[C@@H]1OP(=O)(O)O
The data set can be described thus: purified protein, by the assay type. The format is biochemical, Escherichia coli. The note with it: other: reverse direction, pH 7.5, 2 mM CoA, 25° C.
Excerpt: as §1, §2, §3, §4, §5

B1: E. coli AtoB (thiolase), wild type, his-tagged (Escherichia coli K-12) (protein)
chain: MKNCVIVSAVRTAIGSFNGSLASTSAIDLGATVIKAAIERAKIDSQHVDEVIMGNVLQAGLGQNPARQALLKSGLAETVCGFTVNKVCGSGLKSVALAAQAIQAGQAQSIVAGGMENMSLAPYLLDAKARSGYRLGDGQVYDVILRDGLMCATHGYHMGITAENVAKEYGITREMQDELALHSQRKAAAAIESGAFTAEIVPVNVVTRKKTFVFSQDEFPKANSTAEALGALRPAFDKAGTVTAGNASGINDGAAALVIMEESAALAAGLTPLARIKSYASGGVPPALMGMGPVPATQKALQLAGLQLADIDLIEANEAFAAQFLAVGKNLGFDSEKVNVNGGAIALGHPIGASGARILVTLLHAMQARDKTLGLATLCIGGGQGIAMVIERLN
As for B1, in data set [1], the Michaelis constant (Km) is 68.1 ± 2.56 µM, the catalytic constant (kcat) was determined as 9.23 s⁻¹ and the kcat/Km is 136000 M⁻¹ s⁻¹. In data set [2], the Km was 892.0 ± 56.5 µM, the kcat was determined as 3.17 s⁻¹ and the kcat/Km is 3550 M⁻¹ s⁻¹.

B2: E. coli FadB (hydroxyacyl-CoA dehydrogenase / enoyl-CoA hydratase, NP_418288.1), wild type, his-tagged (Escherichia coli K-12) (protein)
chain: MLYKGDTLYLDWLEDGIAELVFDAPGSVNKLDTATVASLGEAIGVLEQQSDLKGLLLRSNKAAFIVGADITEFLSLFLVPEEQLSQWLHFANSVFNRLEDLPVPTIAAVNGYALGGGCECVLATDYRLATPDLRIGLPETKLGIMPGFGGSVRMPRMLGADSALEIIAAGKDVGADQALKIGLVDGVVKAEKLVEGAKAVLRQAINGDLDWKAKRQPKLEPLKLSKIEATMSFTIAKGMVAQTAGKHYPAPITAVKTIEAAARFGREEALNLENKSFVPLAHTNEARALVGIFLNDQYVKGKAKKLTKDVETPKQAAVLGAGIMGGGIAYQSAWKGVPVVMKDINDKSLTLGMTEAAKLLNKQLERGKIDGLKLAGVISTIHPTLDYAGFDRVDIVVEAVVENPKVKKAVLAETEQKVRQDTVLASNTSTIPISELANALERPENFCGMHFFNPVHRMPLVEIIRGEKSSDETIAKVVAWASKMGKTPIVVNDCPGFFVNRVLFPYFAGFSQLLRDGADFRKIDKVMEKQFGWPMGPAYLLDVVGIDTAHHAQAVMAAGFPQRMQKDYRDAIDALFDANRFGQKNGLGFWRYKEDSKGKPKKEEDAAVEDLLAEVSQPKRDFSEEEIIARMMIPMVNEVVRCLEEGIIATPAEADMALVYGLGFPPFHGGAFRWLDTLGSAKYLDMAQQYQHLGPLYEVPEGLRNKARHNEPYYPPVEPARPVGDLKTA
notes: assayed alone without FadA
For B2, in data set [3], the Km worked out at 390.0 ± 19.2 µM, the catalytic constant (kcat) worked out at 25.9 ± 1.2 s⁻¹ and the catalytic efficiency (kcat/Km) worked out at 66500 M⁻¹ s⁻¹.

B3: Euglena gracilis trans-2-enoyl-CoA reductase egTER (AAW66853.1), his-tagged (Euglena gracilis) (protein)
chain: VPQMAEGFSGEATSAWAAAGPQWAAPLVAAASSALALWWWAARRSVRRPLAALAELPTAVTHLAPPMAMFTTTAKVIQPKIRGFICTTTHPIGCEKRVQEEIAYARAHPPTSPGPKRVLVIGCSTGYGLSTRITAAFGYQAATLGVFLAGPPTKGRPAAAGWYNTVAFEKAALEAGLYARSLNGDAFDSTTKARTVEAIKRDLGTVDLVVYSIAAPKRTDPATGVLHKACLKPIGATYTNRTVNTDKAEVTDVSIEPASPEEIADTVKVMGGEDWELWIQALSEAGVLAEGAKTVAYSYIGPEMTWPVYWSGTIGEAKKDVEKAAKRITQQYGCPAYPVVAKALVTQASSAIPVVPLYICLLYRVMKEKGTHEGCIEQMVRLLTTKLYPENGAPIVDEAGRVRVDDWEMAEDVQQAVKDLWSQVSTANLKDISDFAGYQTEFLRLFGFGIDGVDYDQPVDVEADLPSAAQQ
Regarding B3, in data set [4], the Km was determined as 98.5 ± 7.7 µM, the kcat worked out at 1.14 ± 0.08 s⁻¹ and the catalytic efficiency (kcat/Km) turned out to be 11600 M⁻¹ s⁻¹.

B4: E. coli FadA (3-ketoacyl-CoA thiolase, YP_026272.1), wild type, his-tagged (Escherichia coli K-12) (protein)
chain: MEQVVIVDAIRTPMGRSKGGAFRNVRAEDLSAHLMRSLLARNPALEAAALDDIYWGCVQQTLEQGFNIARNAALLAEVPHSVPAVTVNRLCGSSMQALHDAARMIMTGDAQACLVGGVEHMGHVPMSHGVDFHPGLSRNVAKAAGMMGLTAEMLARMHGISREMQDAFAARSHARAWAATQSAAFKNEIIPTGGHDADGVLKQFNYDEVIRPETTVEALATLRPAFDPVNGMVTAGTSSALSDGAAAMLVMSESRAHELGLKPRARVRSMAVVGCDPSIMGYGPVPASKLALKKAGLSASDIGVFEMNEAFAAQILPCIKDLGLIEQIDEKINLNGGAIALGHPLGCSGARISTTLLNLMERKDVQFGLATMCIGLGQGIATVFERV
notes: assayed alone without FadB
Consider B4, for which, in data set [5], the Km amounted to 422.5 ± 57.3 µM, the kcat was 0.75 ± 0.09 s⁻¹ and the specificity constant (kcat/Km) came out at 1770 M⁻¹ s⁻¹.
